Data: PMC3983035, “The RNA-Binding Protein QKI Suppresses Cancer-Associated Aberrant Splicing”
Positions count from the first letter of the chain named.

T1: QKI-5 (His-tagged) (UniProt Q96PU8 1-341)
T1 sequence: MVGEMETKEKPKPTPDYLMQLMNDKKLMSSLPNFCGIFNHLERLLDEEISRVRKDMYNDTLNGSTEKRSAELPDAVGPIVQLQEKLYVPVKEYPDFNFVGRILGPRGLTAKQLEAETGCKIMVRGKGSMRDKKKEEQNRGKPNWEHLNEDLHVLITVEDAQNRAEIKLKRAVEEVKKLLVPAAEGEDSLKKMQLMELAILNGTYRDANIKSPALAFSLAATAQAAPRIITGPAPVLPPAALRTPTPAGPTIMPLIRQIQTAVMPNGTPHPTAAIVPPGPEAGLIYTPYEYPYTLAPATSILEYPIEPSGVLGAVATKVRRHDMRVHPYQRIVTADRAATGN

T2: SF1 (aa 1-361) (UniProt Q15637 1-361)
T2 sequence: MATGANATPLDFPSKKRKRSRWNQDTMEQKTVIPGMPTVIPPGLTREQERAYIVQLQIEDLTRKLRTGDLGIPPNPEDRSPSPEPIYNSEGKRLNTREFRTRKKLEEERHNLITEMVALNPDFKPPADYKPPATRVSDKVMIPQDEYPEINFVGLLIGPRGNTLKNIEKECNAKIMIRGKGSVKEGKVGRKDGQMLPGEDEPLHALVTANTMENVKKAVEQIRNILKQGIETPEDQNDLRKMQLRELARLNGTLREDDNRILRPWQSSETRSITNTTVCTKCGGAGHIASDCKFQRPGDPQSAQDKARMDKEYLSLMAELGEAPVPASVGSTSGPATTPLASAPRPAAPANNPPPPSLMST

B1: NUMB mut2 RNA (ssRNA)
RNA: GGGCACUUGUACACCCUGCAUGAAUUGACUCCAUUGAUGUUGUCUGCUCCCGUUGUAGCGAGUGGCACUGACUCAGCCUUCCAU
B2: NUMB mut1 RNA (ssRNA)
RNA: B1 RNA with G27A

Assays:
QKI-5 (His-tagged) = biological target: T1, QKI-5 (His-tagged); experiment: EMSA; 0-2080 nM QKI-5; EMSA: 10 ng 32P-RNA, standard splicing conditions, 30 C, 20 min, then tRNA 5 min; 5% native PAGE; buffer, salt and pH not given; details: protein: recombinant; tags: His-tag (pET-28a); reverse primer also encodes C-terminal FLAG; chain copies: 2; label: 32P
SF1 (aa 1-361) = biological target: T2, SF1 (aa 1-361); experiment: EMSA; 5-10x molar excess; EMSA: 10 ng 32P-RNA, standard splicing conditions, 30 C, 20 min, then tRNA 5 min; 5% native PAGE; buffer, salt and pH not given; details: protein: recombinant; tags: N-terminal GST (pGEX-5X-2); label: 32P

Binder	binding result (QKI-5 (His-tagged))	binding result (SF1 (aa 1-361))
B1	no binding	
B2		binds
